Data taken from article PMC5355995.

Assays:
[1] = target: T1, Rex-His6 (Streptomyces avermitilis ATCC31267) (UniProt Q82E78); experiment: EMSA; settings: EMSA: DIG Gel Shift Kit (Roche) binding buffer, 1 ug poly[d(I-C)] in 20 ul, 30 min at 25 C, 5% native PAGE in 0.5x TBE; footprinting: 400 ng DNA in 25 ul …
T1 sequence: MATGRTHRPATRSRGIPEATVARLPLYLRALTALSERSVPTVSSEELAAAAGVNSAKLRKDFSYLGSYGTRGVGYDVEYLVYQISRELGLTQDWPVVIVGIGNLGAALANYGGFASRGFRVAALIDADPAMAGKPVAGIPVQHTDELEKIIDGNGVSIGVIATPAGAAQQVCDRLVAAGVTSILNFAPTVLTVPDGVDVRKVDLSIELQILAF

[2] = target: T1, Rex-His6 (Streptomyces avermitilis ATCC31267); experiment: DNase I footprinting; settings: EMSA: DIG Gel Shift Kit (Roche) binding buffer, 1 ug poly[d(I-C)] in 20 ul, 30 min at 25 C, 5% native PAGE in 0.5x TBE; footprinting: 400 ng DNA in 25 ul …

## CAGTTGCCACGGTGCTCCTGCGGGTAGCGCGGGGCTGCAGGCGGTCACACGTACCTAGACCGCCCCGTCGAAAGCAGGCTATGTCTTTGTGAACGCGTGCACAAAGATAGTGTCCGATTTGCCCGGCCAACGTGACCGGGGTCACGCGCCCCCGGCGTATGCGTATGGAACCGGCACACAGGCGCCTTCGTTCCTCACTCGACGGGGGCAAAACCGCACACACTCCTCAACGATCCACGCCCCCCGAGACCAAACCGCCCCCGATCCTAAGCGACTTTCCGGGCTGTTTGGACTACTC (double strand) [rex promoter probe]
[1]
  binding: binds
[2]
  binding: binds

## GAGTCTCTACGTGGCGATCGAGACGGCCCGCAACACCGGCCTCCACAGAGAGCCAGAACCCCTCCTCAATCCAAAGGACCACGTCAGTCCGTCTGACGATCGGCCCTTCACTTGTTGAGGGATTCGTGAAAGCGTTCACATTCACAAGCAACCTGAATGTAATACCAAGGAGAGGTAGCAGCCATGGA (double strand) [wblE promoter EMSA probe]
[1]
  binding: binds

## GCTTCATGATCCTTCGCCAGGTGGCAGAGATCACAAACTCCTTACTTACCCCCGTGTCGCAGATCACAGACCGCCGGGCATAGGATGCGCAGCAGTTGGGCTTGTGACCTGCTTCACATGTACGCGATCTTCGTCGGGACGCACGGGGTTCGTGGGACGTGTGAGGCGGGAGTGCTCGCCCGACGCAACCTCCCCCAAGGTCTCGGCTCCGCTCGACCAGGGGGACCCCCATGCAGTCAGTGCCGACTGAGAGGAGCGAGGAGCGTGAA (double strand) [nuoA1 promoter EMSA probe]
[1]
  binding: binds
